Data as given in patent US20200024330A1.

How the values were obtained:
Test in all cases: cell-based or functional assay
[1] = biological target: HIV-1 Env of isolate MGRM-D-013 (HIV-1)
[2] = biological target: HIV-1 Env of isolate MGRM-D-012 (HIV-1)
[3] = biological target: HIV-1 Env of isolate MGRM-D-021 (HIV-1)
[4] = biological target: HIV-1 Env of isolate MGRM-C-015 (HIV-1)
[5] = biological target: HIV-1 JR-CSF Env E466A (HIV-1 (isolate JR-CSF)) (UniProt P20871)
[6] = biological target: HIV-1 Env of isolate MGRM-A-010 (clade A), on pseudovirus (HIV-1)
[7] = biological target: HIV-1 Env of isolate 92UG037 (HIV-1)
[8] = biological target: HIV-1 JR-CSF Env L179A (HIV-1 (isolate JR-CSF)) (UniProt P20871)
[9] = biological target: HIV-1 Env of isolate 97ZA012 (HIV-1)
[10] = biological target: HIV-1 Env of isolate MGRM-F1-008 (subtype F), on pseudovirus (HIV-1)
[11] = biological target: HIV-1 Env of isolate MGRM-AG-008 (CRF_AG), on pseudovirus (HIV-1)
[12] = biological target: HIV-1 Env of isolate MGRM-Chronic-B-002 (HIV-1)
[13] = biological target: HIV-1 Env of isolate MGRM-F1-022 (subtype F), on pseudovirus (HIV-1)
[14] = biological target: HIV-1 Env of isolate JRCSF (HIV-1) (UniProt P20871)
[15] = biological target: HIV-1 Env of isolate MGRM-F1-010 (subtype F), on pseudovirus (HIV-1)
[16] = biological target: HIV-1 Env of isolate VLGCA1 (clade A), on pseudovirus (HIV-1)
[17] = biological target: HIV-1 Env of isolate MGRM-D-028 (subtype D), on pseudovirus (HIV-1)
[18] = biological target: HIV-1 Env of isolate MGRM-AE-005 (CRF01_AE), on pseudovirus (HIV-1)
[19] = biological target: HIV-1 Env of isolate MGRM-AG-012 (CRF_AG), on pseudovirus (HIV-1)
[20] = biological target: HIV-1 Env of isolate MGRM-AG-005 (CRF_AG), on pseudovirus (HIV-1)
[21] = biological target: HIV-1 Env of isolate MGRM-C-028 (HIV-1)
[22] = biological target: HIV-1 VLGCB3 Env (pseudovirus) (HIV-1)
[23] = biological target: HIV-1 Env of isolate MGRM-C-006 (pseudovirus) (HIV-1 isolate MGRM-C-006, subtype C)
[24] = biological target: HIV-1 TRJ04551.58 Env (pseudovirus) (HIV-1)
[25] = biological target: HIV-1 Env of isolate 92UG114 (subtype D) (HIV-1)
[26] = biological target: HIV-1 MGRM-Chronic-B-012 Env (pseudovirus) (HIV-1)
[27] = biological target: HIV-1 NL43 Env (pseudovirus) (HIV-1)
[28] = biological target: HIV-1 93TH305 Env (pseudovirus) (HIV-1)
[29] = biological target: HIV-1 93UG077 envelope glycoprotein (Env) on pseudovirus (HIV-1)
[30] = biological target: HIV-1 Env of isolate MGRM-F1-004 (subtype F) (HIV-1)
[31] = biological target: HIV-1 Env of isolate 92UG046 (subtype D) (HIV-1)
[32] = biological target: HIV-1 Env of isolate MGRM-C-028 (pseudovirus) (HIV-1 isolate MGRM-C-028, subtype C)
[33] = biological target: HIV-1 Env of isolate MG RM-D-001 (subtype D) (HIV-1)

Sequence of 5345_I01 (PGT-137) (antibody) (VH): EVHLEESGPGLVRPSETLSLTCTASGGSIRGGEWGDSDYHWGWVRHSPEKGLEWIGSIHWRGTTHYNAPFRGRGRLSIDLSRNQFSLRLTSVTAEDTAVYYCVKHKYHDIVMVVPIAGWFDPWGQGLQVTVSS
Sequence of 5345_I01 (PGT-137) (antibody) (VL): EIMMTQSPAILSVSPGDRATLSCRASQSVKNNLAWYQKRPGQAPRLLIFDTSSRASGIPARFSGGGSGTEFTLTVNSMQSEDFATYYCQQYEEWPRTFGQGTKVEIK
Sequence of 5329_C19 (PGT-136) (antibody) (VH): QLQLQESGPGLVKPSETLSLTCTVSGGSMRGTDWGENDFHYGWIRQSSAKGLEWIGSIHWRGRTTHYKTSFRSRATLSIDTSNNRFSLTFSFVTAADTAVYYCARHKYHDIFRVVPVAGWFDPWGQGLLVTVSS
Sequence of 5329_C19 (PGT-136) (antibody) (VL): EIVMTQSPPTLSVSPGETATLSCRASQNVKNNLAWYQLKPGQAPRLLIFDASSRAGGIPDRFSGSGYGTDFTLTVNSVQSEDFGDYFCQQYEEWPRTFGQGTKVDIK

| Substance | IC50 [1] [µg/mL] | IC50 [2] [µg/mL] | IC50 [3] [µg/mL] | IC50 [4] [µg/mL] | Fold IC50 increase relative to wild-type [5] [fold] | IC50, single-round pseudovirus neutralization [6] [µg/mL] | neutralization IC50 [7] [µg/mL] | IC50 [9] [µg/mL] | IC50, pseudovirus neutralization [10] [µg/mL] | IC50, single-round pseudovirus neutralization [11] [µg/mL] | IC50 [12] [µg/mL] | IC50, pseudovirus neutralization [13] [µg/mL] | IC50 [14] [µg/mL] | IC50, pseudovirus neutralization [15] [µg/mL] | IC50, single-round pseudovirus neutralization [16] [µg/mL] | IC50, pseudovirus neutralization [17] [µg/mL] | IC50, single-round pseudovirus neutralization [18] [µg/mL] | IC50, single-round pseudovirus neutralization [19] [µg/mL] | IC50, single-round pseudovirus neutralization [20] [µg/mL] | IC50 [21] [µg/mL] | also measured |
| --- | --- | --- | --- | --- | --- | --- | --- | --- | --- | --- | --- | --- | --- | --- | --- | --- | --- | --- | --- | --- | --- |
| 5136_H01 (PGT-131) (antibody) | 4.14 | > 50 | 0.106 | 1.01 | 1.7 | 0.01 | 0.048 | 1.81 | 2.74 | > 50 | > 50 | > 50 | 0.029 | > 50 | > 50 | > 50 | 0.017 | > 50 | 1.04 | > 50 | Fold IC50 increase relative to wild-type [8]: 4.8 fold |
| 5114_A19 (PGT-128) (antibody) | 8.85 | > 50 | 0.014 | 0.196 | 0.6 | 0.005 | 0.006 | 0.019 | > 50 | 0.668 | 0.036 | 4.54 | 0.003 | 16.7 | 0.838 | > 50 | 0.032 | > 50 | 0.037 | 14.4 | Fold IC50 increase relative to wild-type [8]: 2.8 fold |
| 5343_B08 (PGT-135) (antibody) | > 50 | > 50 | > 50 | 0.104 | 0.5 | > 50 | 3.67 | > 50 | > 50 | > 50 | > 50 | 0.964 | 0.131 | > 50 | > 50 | > 50 | > 50 | 41.9 | > 50 | 1.47 | Fold IC50 increase relative to wild-type [8]: 1.2 fold |
| 5329_C19 (PGT-136) (antibody) | > 50 | > 50 | > 50 | 11.1 |  | > 50 | > 50 | > 50 | > 50 | > 50 | > 50 | 2.42 | > 50 | > 50 | > 50 | > 50 | > 50 | > 50 | > 50 | 33.7 |  |
| 4858_P08 (PGT-123) (antibody) |  |  |  |  | 0.6 |  |  |  |  |  |  |  |  |  |  |  |  |  |  |  | IC50, pseudovirus neutralization [22]: 0.004 µg/mL; IC50 (µg/mL) neutralization [23]: 0.021 µg/mL; IC50, pseudovirus neutralization [24]: 16.9 µg/mL; IC50 (µg/mL), pseudovirus neutralization [25]: 0.005 µg/mL; IC50, pseudovirus neutralization [26]: 0.227 µg/mL; IC50, pseudovirus neutralization [27]: > 50 µg/mL; IC50, pseudovirus neutralization [28]: 0.008 µg/mL; Fold IC50 increase relative to wild-type [8]: 1.2 fold; IC50 (ug/ml), neutralizing activity [29]: 0.0303 µg/mL; IC50, pseudovirus neutralization [29]: 0.0303 µg/mL; IC80, pseudovirus neutralization [29]: 0.143 µg/mL; IC90 (pseudovirus neutralization) [29]: 0.35 µg/mL; IC95, pseudovirus neutralization [29]: 0.78 µg/mL; IC50 (µg/mL), pseudovirus neutralization [30]: 1.78 µg/mL; IC50 (µg/mL), pseudovirus neutralization [31]: > 50 µg/mL; IC50 (µg/mL) neutralization [32]: 0.402 µg/mL; IC50 (µg/mL), pseudovirus neutralization [33]: 0.147 µg/mL |
| 5345_I01 (PGT-137) (antibody) | > 50 | > 50 | > 50 | 1.98 |  | > 50 | > 50 | > 50 | > 50 | > 50 | > 50 | 6.23 | > 50 | > 50 | > 50 | > 50 | > 50 | > 50 | > 50 | > 50 |  |
| 5147_N06 (PGT-130) (antibody) | 0.429 | > 50 | 0.156 | 0.344 | 1.7 | 0.005 | 0.061 | 1.32 | 0.065 | > 50 | > 50 | > 50 | 0.01 | > 50 | > 50 | 0.825 | 0.006 | > 50 | 0.54 | > 50 | Fold IC50 increase relative to wild-type [8]: 2.4 fold; IC50 (ug/ml), neutralizing activity [29]: > 10 µg/mL |
